Biological target: LCMV glycoprotein GP33-41 epitope presented by the histocompatibility molecules H-2D^b (LCMV virus; mouse (C57BL/6)) (UniProt P09991)
Test: cell-based or functional assay

Q: “T receptor (TCR Vα2 Vβ8) specific for the GP33-41 epitope, on CD8 T lymphocytes of TCR-transgenic C57BL/6 mice” was tested. Which % CD44^hi effector - memory, of CD8+ TCR Vα2 T cells, 7 days after injection of H293-341-LCMV.GP particle supernatant (control H293-341: 37.6) did it give?
A: 63.9%

Q: What about the CD44^lo (naïve), percent of CD8+ TCR Vα2 T cells, 7 days after injection of H293-341-LCMV.GP particle supernatant (control H293-341: 57.6) of the same sequence?
A: 24.5%

From patent US20040071661A1
